Assay results from PMC12630360.

Experiments:
[1] = target: HLA class I heavy chains of HeLa/US6 cells (the H of HLA-Hβ in the BFA/temperature upshift decays) (human (endogenous in HeLa)); test: flow cytometry on cells; BFA/temperature upshift decays: cells overnight at 25 °C, 10 μg/ml brefeldin A, then 37 °C for the indicated times; surface Hβ and fH followed with conformation-specific mAbs; half-times fitted (by hand or Solver) with a first-order in silico model
[2] = target: H-2L^d heavy chain (free heavy chain, L^d-fH, when without β2m and peptide) (mouse); test: as above

| half-time of β2m dissociation (r1) at 37 °C [1] | half-time of β2m dissociation (r1) at 37 °C [2] | Substance |
| --- | --- | --- |
| 10 min | – | beta-2 microglobulin of HeLa/US6 cells (from UniProt P61769 21-119) (natural protein) |
| – | 3 min | beta-2 microglobulin of STF1 cells (from UniProt P61769 21-119) (natural protein) |
